Assays:
[1] = system: TEV protease sensor, StrepII-GFP-(linker)-(protease site)-CGRP-Gly fusion with GGSG linker and ENLYFQG protease site, uncleaved
[2] = system: Caspase-3 sensor, StrepII-GFP-(linker)-(protease site)-CGRP-Gly fusion with GGSG linker and DEVD protease site, uncleaved
[3] = system: Enterokinase sensor, StrepII-GFP-(linker)-(protease site)-CGRP-Gly fusion with GGSG linker and DDDDK protease site, uncleaved

Substance: Tobacco Etch Virus (TEV) protease
- proteolytic cleavage of the sensor, read by CGRP receptor activation [1]: after being cleaved by their respective protease

Substance: caspase-3
- proteolytic cleavage of the sensor (MALDI spectrum) [2]: MALDI spectrum showing cleavage of caspase sensor
- proteolytic cleavage of the sensor, read by CGRP receptor activation [2]: after being cleaved by their respective protease

Substance: enterokinase
- proteolytic cleavage of the sensor, read by CGRP receptor activation [3]: after being cleaved by their respective protease
